Here are results for 1 protein from patent EP2468767B1 (dated 2007).

This data set concerns the molecule itself. Description: gel filtration on Superdex 200 HR. A general note: In gel filtration, larger molecules generally elute earlier.

B1: IR485 (human insulin receptor residues 1-485 with enterokinase site and c-myc tag) (receptor)
chain: HLYPGEVCPGMDIRNNLTRLHELENCSVIEGHLQILLMFKTRPEDFRDLSFPKLIMITDYLLLFRVYGLESLKDLFPNLTVIRGSRLFFNYALVIFEMVHLKELGLYNLMNITRGSVRIEKNNELCYLATIDWSRILDSVEDNYIVLNKDDNEECGDICPGTAKGKTNCPATVINGQFVERCWTHSHCQKVCPTICKSHGCTAEGLCCHSECLGNCSQPDDPTKCVACRNFYLDGRCVETCPPPYYHFQDWRCVNFSFCQDLHHKCKNSRRQGCHQYVIHNNKCIPECPSGYTMNSSNLLCTPCLGPCPKVCHLLEGEKTIDSVTSAQELRGCTVINGSLIINIRGGNNLAAELEANLGLIEEISGYLKIRRSYALVSLSFFRKLRLIRGETLEIGNYSFYALDNQNLRQLWDWSKHNLTITQGKLFFHYNPKLCLSEIHKMEEVSGTKGRQERNDIALKTNGDQASCENELLKFSYIRTSFDKISDDDDKEQKLISEEDLN
In the case of B1, the binding result is given as “binds”.
